Read-outs that look alike come from different tables or passages of the source. Each block holds one binder with its values, some of them ahead of it.
Key:
[1] = target: T1, full-length TIGIT on hTIGIT-CHO-K1 cells (human, UniProt Q495A1 22-244); assay: FACS on hTIGIT-CHO-K1 cells
T1 construct: CHO-K1 cells stably transfected with pTargeT-TIGIT; also called TIGIT on cell surface
T1 sequence: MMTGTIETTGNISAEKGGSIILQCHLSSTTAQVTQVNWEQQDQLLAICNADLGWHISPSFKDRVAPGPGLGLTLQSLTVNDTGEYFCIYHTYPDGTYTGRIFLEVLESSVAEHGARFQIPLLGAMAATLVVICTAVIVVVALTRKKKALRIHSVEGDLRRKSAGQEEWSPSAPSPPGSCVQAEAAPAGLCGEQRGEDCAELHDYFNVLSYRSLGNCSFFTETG

[2] = target: T2, human PD-L1 on hPD-L1-CHO-K1 cells (human, UniProt Q9NZQ7 19-290); assay: FACS on hPD-L1-CHO-K1 cells
T2 construct: whole, on cells; The making of this cell line is not described
T2 sequence (Q9NZQ7 19-290): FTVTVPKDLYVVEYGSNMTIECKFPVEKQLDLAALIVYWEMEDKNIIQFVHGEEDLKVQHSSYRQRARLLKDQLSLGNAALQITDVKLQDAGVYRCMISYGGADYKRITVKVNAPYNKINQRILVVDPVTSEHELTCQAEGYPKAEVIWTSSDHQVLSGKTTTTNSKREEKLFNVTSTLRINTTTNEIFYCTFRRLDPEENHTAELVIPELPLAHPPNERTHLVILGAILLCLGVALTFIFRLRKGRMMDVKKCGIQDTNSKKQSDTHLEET

[3] = target: T3, PD-L1-his (human, UniProt Q9NZQ7 19-238, limits assumed); assay: BLI, Fortebio Octet RED96, antibody on AHC sensor, PD-L1-his in solution
T3 construct: also called human PD-L1 protein
T3 sequence (Q9NZQ7 19-238 limits assumed): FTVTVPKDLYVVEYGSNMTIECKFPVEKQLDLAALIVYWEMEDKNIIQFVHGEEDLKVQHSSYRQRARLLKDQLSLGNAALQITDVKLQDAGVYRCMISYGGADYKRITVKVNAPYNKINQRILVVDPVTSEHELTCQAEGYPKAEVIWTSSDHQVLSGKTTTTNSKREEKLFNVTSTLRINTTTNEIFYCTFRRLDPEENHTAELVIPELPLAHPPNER

[4] = target: T4, TIGIT-his (extracellular region of human TIGIT protein fused with his) (human, UniProt Q495A1 22-141); assay: BLI, Fortebio Octet RED96, antibody on AHC sensor, TIGIT-his in solution
T4 construct: also called antigen TIGIT-his
T4 sequence: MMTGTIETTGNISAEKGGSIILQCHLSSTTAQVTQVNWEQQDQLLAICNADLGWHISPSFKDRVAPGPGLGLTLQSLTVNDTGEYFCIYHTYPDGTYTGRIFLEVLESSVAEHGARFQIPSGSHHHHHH

[5] = target: T2, human PD-L1 on hPD-L1-CHO-K1 cells; assay: FACS, blocking of PD-1-mFc binding to hPD-L1-CHO-K1 cells (competitor PD-1-mFc)
[6] = target: T5, TIGIT-mFc (extracellular region of human TIGIT with mIgG1-Fc tag) (human); assay: FACS, blocking of TIGIT-mFc binding to cells (TIGIT/CD155; cells printed as hTIGIT-CHO-K1)
T5 construct: A bought TIGIT-mFc (Acro Biosystems TIT-H5253) is used for immunization; also called recombinant humanized TIGIT-mFc
T5 chain: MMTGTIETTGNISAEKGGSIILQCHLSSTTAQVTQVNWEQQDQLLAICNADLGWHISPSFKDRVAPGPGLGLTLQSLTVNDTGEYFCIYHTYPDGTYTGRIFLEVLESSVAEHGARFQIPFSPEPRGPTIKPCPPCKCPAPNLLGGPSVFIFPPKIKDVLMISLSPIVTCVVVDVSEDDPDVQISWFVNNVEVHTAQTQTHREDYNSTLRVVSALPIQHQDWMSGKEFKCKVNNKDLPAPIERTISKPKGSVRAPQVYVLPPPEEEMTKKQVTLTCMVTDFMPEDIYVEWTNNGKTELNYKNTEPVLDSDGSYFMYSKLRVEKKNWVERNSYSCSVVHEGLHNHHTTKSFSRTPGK

[7] = target: T4, TIGIT-his (extracellular region of …); assay: BLI, Fortebio Octet RED96, SA sensor
[8] = target: T5, TIGIT-mFc (extracellular region of …); assay: ELISA, blocking of TIGIT-mFc binding to coated CD155-hFc (competitor CD155-hFc)
[9] = target: T1, full-length TIGIT on hTIGIT-CHO-K1 cells; assay: FACS on hTIGIT-CHO-K1 cells; remark: listed apart in the source
[10] = target: T6, Human TIGIT-His protein (Sino Biological, 10917-H08H) (human, UniProt Q495A1 22-141); assay: ELISA, human TIGIT-His coated
T6 sequence (looked up): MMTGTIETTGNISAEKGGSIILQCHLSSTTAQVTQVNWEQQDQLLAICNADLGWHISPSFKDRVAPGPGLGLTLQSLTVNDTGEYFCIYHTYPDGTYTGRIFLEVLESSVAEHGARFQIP

- Kd [7]: 1.14 nM
- koff [7]: 0.00151 s⁻¹
- kon [7]: 1.33e+06 M⁻¹ s⁻¹
- Kd [4]: 2.43 nM
- koff [4]: 0.00192 s⁻¹
- kon [4]: 792000 M⁻¹ s⁻¹
- IC50 [8]: 1.01 nM
- EC50 [9]: 0.199 nM
- EC50 [10]: 2.43 nM
B3: SHS006-T-Hu23-53 (antibody, IgG4, V domains shown)
VH: EVQLVESGGGLVQPGGSLRLSCAASGFTFSDHWMSWVRQAPGKTMEWIGNIQYDGSYTNYAPSLKNRFTISRDNAKNSLYLQMNSLRAEDTATYYCTRGHFRITMASMGASASVYWGQGTMVTVSS
VL: DIQMTQSPSSLSASVGDRVTITCRTSQDIGNSLRWFQQKPGKAPKLLIHGATNLANGVPSRFSGSGSGTDFTLTISSLQPEDFATYYCLQHNEYPLTFGQGTKLEIK
notes: Humanized; also called SHS006-HuT23-53; HuT23-53

- EC50 [2]: 0.955 nM
- Kd [3]: 2.08 nM
- koff [3]: 0.000326 s⁻¹
- kon [3]: 157000 M⁻¹ s⁻¹
- Kd [4]: 2.74 nM
- koff [4]: 0.00239 s⁻¹
- kon [4]: 872000 M⁻¹ s⁻¹
- IC50 [6]: 1.68 nM
B4: HuPL1642-T2353-ScFv (bispecific antibody, human IgG4 S228P, kappa)
heavy: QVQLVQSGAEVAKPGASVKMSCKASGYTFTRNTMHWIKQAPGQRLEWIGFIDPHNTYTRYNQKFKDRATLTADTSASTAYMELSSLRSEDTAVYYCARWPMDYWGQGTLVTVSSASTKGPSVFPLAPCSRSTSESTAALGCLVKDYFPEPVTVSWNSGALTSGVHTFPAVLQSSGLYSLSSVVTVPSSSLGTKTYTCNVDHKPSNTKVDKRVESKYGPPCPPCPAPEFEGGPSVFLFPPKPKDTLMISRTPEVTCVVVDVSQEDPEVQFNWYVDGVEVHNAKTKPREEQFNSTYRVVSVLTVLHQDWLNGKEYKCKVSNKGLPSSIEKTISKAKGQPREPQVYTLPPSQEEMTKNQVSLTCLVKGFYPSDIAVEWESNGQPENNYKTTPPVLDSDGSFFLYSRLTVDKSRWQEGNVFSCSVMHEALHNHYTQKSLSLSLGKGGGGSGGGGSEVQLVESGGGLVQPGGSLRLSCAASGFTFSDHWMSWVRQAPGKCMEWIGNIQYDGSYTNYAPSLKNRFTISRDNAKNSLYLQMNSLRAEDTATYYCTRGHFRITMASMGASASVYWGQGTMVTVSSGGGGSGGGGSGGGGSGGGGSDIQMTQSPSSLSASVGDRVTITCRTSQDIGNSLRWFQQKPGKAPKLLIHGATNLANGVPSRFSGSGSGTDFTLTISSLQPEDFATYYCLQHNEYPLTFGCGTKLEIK
light: DIVMTQSPDSLAVSLGERVTMRCKSSQSLSWSENQNNYLSWYQQKPGQPPKLLIYGASIRESGVPDRFSGSGSGTDFTLTISSVQAEDVGVYYCQHNHGSFLPYTFGQGTKLEIKRTVAAPSVFIFPPSDEQLKSGTASVVCLLNNFYPREAKVQWKVDNALQSGNSQESVTEQDSKDSTYSLSSTLTLSKADYEKHKVYACEVTHQGLSSPVTKSFNRGEC
notes: Symmetrical structure: PL1642-T2353-scFv-HC and HuPL1642-VL2

Further lines, the binder ahead of its results:

B1: HuPL721-T2353-ScFab (bispecific antibody, human IgG4 S228P, kappa)
chain 1: DIQMTQSPSSLSASVGDRVTITCRTSQDIGNSLRWFQQKPGKAPKLLIHGATNLANGVPSRFSGSGSGTDFTLTISSLQPEDFATYYCLQHNEYPLTFGCGTKLEIKRTVAAPSVFIFPPSDEQLKSGTASVVCLLNNFYPREAKVQWKVDNALQSGNSQESVTEQDSKDSTYSLSSTLTLSKADYEKHKVYACEVTHQGLSSPVTKSFNRGECGGGGSGGGGSGGGGSGGGGSGGGGSGGGGSGGGGSGGGGSEVQLVESGGGLVQPGGSLRLSCAASGFTFSDHWMSWVRQAPGKCMEWIGNIQYDGSYTNYAPSLKNRFTISRDNAKNSLYLQMNSLRAEDTATYYCTRGHFRITMASMGASASVYWGQGTMVTVSSASTKGPSVFPLAPCSRSTSESTAALGCLVKDYFPEPVTVSWNSGALTSGVHTFPAVLQSSGLYSLSSVVTVPSSSLGTKTYTCNVDHKPSNTKVDKRVESKYGPPCPPCPAPEFLGGPSVFLFPPKPKDTLMISRTPEVTCVVVDVSQEDPEVQFNWYVDGVEVHNAKTKPREEQFNSTYRVVSVLTVLHQDWLNGKEYKCKVSNKGLPSSIEKTISKAKGQPREPQVYTLPPCQEEMTKNQVSLWCLVKGFYPSDIAVEWESNGQPENNYKTTPPVLDSDGSFFLYSRLTVDKSRWQEGNVFSCSVMHEALHNHYTQKSLSLSLGK
chain 2: not shown
notes: each is light chain - GGGGS linker - heavy chain, IgG4
- EC50 [1]: 1.3 nM
- EC50 [2]: 1.77 nM
- Kd [3]: 1.32 nM
- koff [3]: 0.000273 s⁻¹
- kon [3]: 207000 M⁻¹ s⁻¹
- Kd [4]: 3.06 nM
- koff [4]: 0.00333 s⁻¹
- kon [4]: 1.09e+06 M⁻¹ s⁻¹
- IC50 [5]: 3.19 nM
- IC50 [6]: 4.08 nM

B2: HuPL1642-T2353-ScFab (bispecific antibody, human IgG4 S228P, kappa)
chain 1: B1 chain 1
chain 2: DIVMTQSPDSLAVSLGERVTMRCKSSQSLSWSENQNNYLSWYQQKPGQPPKLLIYGASIRESGVPDRFSGSGSGTDFTLTISSVQAEDVGVYYCQHNHGSFLPYTFGCGTKLEIKRTVAAPSVFIFPPSDEQLKSGTASVVCLLNNFYPREAKVQWKVDNALQSGNSQESVTEQDSKDSTYSLSSTLTLSKADYEKHKVYACEVTHQGLSSPVTKSFNRGECGGGGSGGGGSGGGGSGGGGSGGGGSGGGGSGGGGSGGGGSQVQLVQSGAEVAKPGASVKMSCKASGYTFTRNTMHWIKQAPGQCLEWIGFIDPHNTYTRYNQKFKDRATLTADTSASTAYMELSSLRSEDTAVYYCARWPMDYWGQGTLVTVSSASTKGPSVFPLAPCSRSTSESTAALGCLVKDYFPEPVTVSWNSGALTSGVHTFPAVLQSSGLYSLSSVVTVPSSSLGTKTYTCNVDHKPSNTKVDKRVESKYGPPCPPCPAPEFLGGPSVFLFPPKPKDTLMISRTPEVTCVVVDVSQEDPEVQFNWYVDGVEVHNAKTKPREEQFNSTYRVVSVLTVLHQDWLNGKEYKCKVSNKGLPSSIEKTISKAKGQPREPQVCTLPPSQEEMTKNQVSLSCAVKGFYPSDIAVEWESNGQPENNYKTTPPVLDSDGSFFLVSRLTVDKSRWQEGNVFSCSVMHEALHNHYTQKSLSLSLGK
- Kd [3]: 1.15 nM
- koff [3]: 0.000212 s⁻¹
- kon [3]: 184000 M⁻¹ s⁻¹
- Kd [4]: 13.9 nM
- koff [4]: 0.00487 s⁻¹
- kon [4]: 350000 M⁻¹ s⁻¹
- IC50 [6]: 1.51 nM

— patent US20240262915A1 (NANJING SANHOME PHARMACEUTICAL, published 2024)
